Laboratory results from the supplement of paper PMC10065799, “High-throughput profiling of sequence recognition by tyrosine kinases and SH2 domains using bacterial peptide display” (eLife, 2023).

Key:
MERTK = MERTK (UniProt Q12866); assay: phosphorylation enrichment, bacterial display (enrichment ratio); higher = better substrate or ligand; peptides without Tyr show the background
c-Src = assay: as above
EPHB2 = EPHB2 (UniProt P29323); assay: as above
FGFR1 = FGFR1 (UniProt P11362); assay: as above
FGFR1, sequence (P11362 whole entry, looked up): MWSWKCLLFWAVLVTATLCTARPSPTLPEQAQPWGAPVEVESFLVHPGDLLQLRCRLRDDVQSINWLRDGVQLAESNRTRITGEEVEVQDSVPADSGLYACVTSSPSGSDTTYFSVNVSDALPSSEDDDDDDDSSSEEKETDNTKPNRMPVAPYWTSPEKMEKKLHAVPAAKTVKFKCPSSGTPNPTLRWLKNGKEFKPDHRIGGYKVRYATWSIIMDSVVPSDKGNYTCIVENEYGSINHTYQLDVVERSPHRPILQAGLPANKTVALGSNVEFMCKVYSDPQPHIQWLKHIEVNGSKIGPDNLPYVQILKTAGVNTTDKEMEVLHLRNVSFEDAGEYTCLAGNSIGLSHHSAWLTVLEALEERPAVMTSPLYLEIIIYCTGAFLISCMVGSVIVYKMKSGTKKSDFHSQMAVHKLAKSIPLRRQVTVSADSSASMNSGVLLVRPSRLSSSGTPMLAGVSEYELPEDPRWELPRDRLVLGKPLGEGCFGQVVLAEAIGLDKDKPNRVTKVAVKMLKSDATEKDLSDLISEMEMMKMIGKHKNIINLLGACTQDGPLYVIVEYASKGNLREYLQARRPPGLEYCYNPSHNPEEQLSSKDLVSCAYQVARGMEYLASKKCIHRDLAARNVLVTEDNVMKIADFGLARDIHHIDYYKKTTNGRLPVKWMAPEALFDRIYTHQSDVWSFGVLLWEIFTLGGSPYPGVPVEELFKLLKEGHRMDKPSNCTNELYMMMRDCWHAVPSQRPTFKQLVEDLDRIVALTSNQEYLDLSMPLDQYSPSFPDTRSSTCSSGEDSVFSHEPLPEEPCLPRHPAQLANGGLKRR

Hck = Hck (UniProt P08631); assay: as above
Hck, sequence (P08631 whole entry, looked up): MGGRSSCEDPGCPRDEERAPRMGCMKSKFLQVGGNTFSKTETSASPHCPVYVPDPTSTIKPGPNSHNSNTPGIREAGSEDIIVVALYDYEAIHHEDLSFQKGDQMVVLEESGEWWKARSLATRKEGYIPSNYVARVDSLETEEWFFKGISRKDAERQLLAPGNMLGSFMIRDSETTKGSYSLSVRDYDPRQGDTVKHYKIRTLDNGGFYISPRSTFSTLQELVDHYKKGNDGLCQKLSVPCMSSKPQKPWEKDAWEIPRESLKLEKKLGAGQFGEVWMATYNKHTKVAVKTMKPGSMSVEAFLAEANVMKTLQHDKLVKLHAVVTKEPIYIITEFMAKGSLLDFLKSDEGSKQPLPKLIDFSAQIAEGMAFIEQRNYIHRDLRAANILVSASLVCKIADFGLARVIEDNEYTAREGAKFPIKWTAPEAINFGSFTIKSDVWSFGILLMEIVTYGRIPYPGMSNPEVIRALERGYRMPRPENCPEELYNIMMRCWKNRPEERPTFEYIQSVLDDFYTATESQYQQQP

c-Abl (mouse) = assay: as above
Fer (mouse) = assay: as above
EPHB1 = EPHB1 (UniProt P54762); assay: as above
Jak2 = Jak2 (UniProt O60674); assay: as above
Jak2, sequence (O60674 whole entry, looked up): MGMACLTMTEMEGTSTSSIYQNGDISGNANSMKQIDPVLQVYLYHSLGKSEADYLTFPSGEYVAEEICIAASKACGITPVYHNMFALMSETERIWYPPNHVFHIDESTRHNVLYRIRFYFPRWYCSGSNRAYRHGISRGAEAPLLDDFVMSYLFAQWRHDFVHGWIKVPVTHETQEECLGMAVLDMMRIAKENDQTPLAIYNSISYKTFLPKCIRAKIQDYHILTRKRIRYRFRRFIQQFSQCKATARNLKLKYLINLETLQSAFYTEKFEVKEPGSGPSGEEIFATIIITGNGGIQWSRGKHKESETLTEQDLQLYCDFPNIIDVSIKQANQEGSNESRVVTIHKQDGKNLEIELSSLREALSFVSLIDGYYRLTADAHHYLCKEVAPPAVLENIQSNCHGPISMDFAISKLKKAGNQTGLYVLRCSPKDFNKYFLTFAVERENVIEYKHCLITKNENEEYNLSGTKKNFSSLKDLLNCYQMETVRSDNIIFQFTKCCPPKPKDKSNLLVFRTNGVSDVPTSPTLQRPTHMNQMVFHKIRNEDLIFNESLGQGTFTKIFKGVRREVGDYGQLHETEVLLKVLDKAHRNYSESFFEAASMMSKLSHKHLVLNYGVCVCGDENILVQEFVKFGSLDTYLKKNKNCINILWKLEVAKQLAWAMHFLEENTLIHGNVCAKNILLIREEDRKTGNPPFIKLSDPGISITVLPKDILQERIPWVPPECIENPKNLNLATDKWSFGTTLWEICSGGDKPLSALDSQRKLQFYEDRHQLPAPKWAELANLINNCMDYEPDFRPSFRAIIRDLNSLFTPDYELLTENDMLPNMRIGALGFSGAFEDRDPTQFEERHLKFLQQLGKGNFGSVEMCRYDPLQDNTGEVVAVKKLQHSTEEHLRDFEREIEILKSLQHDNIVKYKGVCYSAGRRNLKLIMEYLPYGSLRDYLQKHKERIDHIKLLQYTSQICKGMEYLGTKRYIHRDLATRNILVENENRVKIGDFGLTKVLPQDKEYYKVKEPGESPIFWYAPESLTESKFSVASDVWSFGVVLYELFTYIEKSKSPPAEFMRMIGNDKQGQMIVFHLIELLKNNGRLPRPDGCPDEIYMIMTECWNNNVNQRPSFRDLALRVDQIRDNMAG

AncSZ = assay: as above
Fyn = Fyn (UniProt P06241); assay: as above
Fyn, sequence (P06241 whole entry, looked up): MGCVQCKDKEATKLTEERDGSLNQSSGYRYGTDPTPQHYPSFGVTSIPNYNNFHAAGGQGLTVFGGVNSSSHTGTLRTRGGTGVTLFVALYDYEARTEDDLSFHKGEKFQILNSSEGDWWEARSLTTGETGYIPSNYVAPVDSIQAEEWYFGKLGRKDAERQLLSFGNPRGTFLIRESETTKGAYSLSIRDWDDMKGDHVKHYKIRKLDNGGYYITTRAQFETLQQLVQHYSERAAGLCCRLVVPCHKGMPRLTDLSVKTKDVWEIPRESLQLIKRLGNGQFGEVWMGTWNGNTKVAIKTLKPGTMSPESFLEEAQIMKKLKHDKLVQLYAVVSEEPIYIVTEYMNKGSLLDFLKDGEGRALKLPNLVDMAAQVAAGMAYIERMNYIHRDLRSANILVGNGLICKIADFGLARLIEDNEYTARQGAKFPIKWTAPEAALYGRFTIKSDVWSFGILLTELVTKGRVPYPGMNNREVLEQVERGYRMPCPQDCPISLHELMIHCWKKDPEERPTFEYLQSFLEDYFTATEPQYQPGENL

FGFR3 = FGFR3 (UniProt P22607); assay: as above
FGFR3, sequence (P22607 whole entry, looked up): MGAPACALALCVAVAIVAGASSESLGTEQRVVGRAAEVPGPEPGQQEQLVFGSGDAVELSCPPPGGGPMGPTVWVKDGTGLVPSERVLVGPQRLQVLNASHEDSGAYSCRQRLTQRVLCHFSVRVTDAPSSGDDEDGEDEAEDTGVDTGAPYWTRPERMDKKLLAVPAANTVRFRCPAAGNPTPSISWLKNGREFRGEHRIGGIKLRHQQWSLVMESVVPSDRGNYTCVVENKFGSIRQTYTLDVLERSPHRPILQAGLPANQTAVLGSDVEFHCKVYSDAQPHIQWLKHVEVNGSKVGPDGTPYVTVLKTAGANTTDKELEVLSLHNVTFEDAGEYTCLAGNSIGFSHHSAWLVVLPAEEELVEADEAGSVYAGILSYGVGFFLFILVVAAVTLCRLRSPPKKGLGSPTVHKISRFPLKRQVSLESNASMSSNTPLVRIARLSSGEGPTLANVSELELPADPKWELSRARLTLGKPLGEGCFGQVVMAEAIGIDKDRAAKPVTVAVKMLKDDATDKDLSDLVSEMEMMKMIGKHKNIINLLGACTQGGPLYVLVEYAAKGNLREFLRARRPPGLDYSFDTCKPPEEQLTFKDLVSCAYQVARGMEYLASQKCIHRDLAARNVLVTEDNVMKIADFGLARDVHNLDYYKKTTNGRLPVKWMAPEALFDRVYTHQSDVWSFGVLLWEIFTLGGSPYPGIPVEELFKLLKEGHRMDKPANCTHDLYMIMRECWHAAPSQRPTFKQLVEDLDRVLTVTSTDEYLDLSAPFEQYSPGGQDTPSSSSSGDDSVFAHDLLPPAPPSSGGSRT

Fes = Fes (UniProt P07332); assay: as above
c-Src SH2 = assay: SH2 binding enrichment of the phosphorylated peptide, bacterial display (enrichment ratio); higher = better substrate or ligand; peptides without Tyr show the background
SHP2-C SH2 = assay: as above
Grb2 SH2 = Grb2 SH2 (UniProt P62993); assay: as above
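Throughout, for SH2 binding enrichment of the phosphorylated peptide, bacterial display: peptide library displayed on the E. coli surface as eCPX fusions, selected cells deep-sequenced, score is each peptide's frequency after selection divided by its frequency in the input.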
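Throughout, for phosphorylation enrichment, bacterial display: 11-residue human phosphosite peptides and single-mutation variants displayed on the E. coli surface, counted by deep sequencing, each peptide's frequency after selection divided by its frequency in the unselected input library; frequency after pTyr selection over input frequency; kinase dosed for 20-30% of maximal phosphorylation in three min.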

MERTK, sequence (Q12866 whole entry, looked up): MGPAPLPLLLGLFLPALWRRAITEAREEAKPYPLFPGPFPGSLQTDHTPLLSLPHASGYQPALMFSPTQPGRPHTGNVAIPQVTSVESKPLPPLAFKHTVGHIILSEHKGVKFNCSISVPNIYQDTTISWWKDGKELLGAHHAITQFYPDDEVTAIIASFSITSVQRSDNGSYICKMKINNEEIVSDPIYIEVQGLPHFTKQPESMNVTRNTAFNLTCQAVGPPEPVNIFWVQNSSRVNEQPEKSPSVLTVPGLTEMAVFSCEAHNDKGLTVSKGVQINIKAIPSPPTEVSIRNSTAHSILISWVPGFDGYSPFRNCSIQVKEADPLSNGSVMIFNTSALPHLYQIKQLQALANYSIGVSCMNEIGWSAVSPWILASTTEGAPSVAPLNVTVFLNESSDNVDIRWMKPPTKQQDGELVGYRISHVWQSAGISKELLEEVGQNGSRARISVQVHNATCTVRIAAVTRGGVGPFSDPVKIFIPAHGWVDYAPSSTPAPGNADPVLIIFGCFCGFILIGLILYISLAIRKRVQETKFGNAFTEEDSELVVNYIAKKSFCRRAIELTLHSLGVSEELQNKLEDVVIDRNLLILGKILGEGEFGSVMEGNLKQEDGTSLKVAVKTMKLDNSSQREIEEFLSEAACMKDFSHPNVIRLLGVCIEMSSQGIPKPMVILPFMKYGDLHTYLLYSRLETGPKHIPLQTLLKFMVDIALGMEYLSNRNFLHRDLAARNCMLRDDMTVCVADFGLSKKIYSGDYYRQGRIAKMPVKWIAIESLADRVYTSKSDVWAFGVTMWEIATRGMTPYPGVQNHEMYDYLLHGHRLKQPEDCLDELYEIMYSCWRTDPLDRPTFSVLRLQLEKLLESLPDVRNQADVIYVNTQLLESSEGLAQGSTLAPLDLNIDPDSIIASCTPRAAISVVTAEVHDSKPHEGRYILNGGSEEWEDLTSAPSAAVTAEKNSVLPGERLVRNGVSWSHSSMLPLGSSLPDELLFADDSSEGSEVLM

Row | Sequence | SH2 binding enrichment (c-Src SH2) | SH2 binding enrichment (SHP2-C SH2) | SH2 binding enrichment (Grb2 SH2) | phosphorylation enrichment (MERTK) | phosphorylation enrichment (c-Src) | phosphorylation enrichment (EPHB2) | phosphorylation enrichment (FGFR1) | phosphorylation enrichment (Hck) | phosphorylation enrichment (c-Abl (mouse)) | phosphorylation enrichment (Fer (mouse)) | phosphorylation enrichment (EPHB1) | phosphorylation enrichment (Jak2) | phosphorylation enrichment (AncSZ) | phosphorylation enrichment (Fyn) | phosphorylation enrichment (FGFR3) | phosphorylation enrichment (Fes)
1 | DNEALYDICFC [TUBB3_Y208_R213C] | 0.714 | 0.8 | 0.865 | 8.05 | 6.25 | 5.33 | 0.748 | 5.92 | 2.07 | 12.5 | 4.22 | 1.46 | 6.01 | 7.33 | 0.992 | 1.73
2 | YIPSNYVAEDR [FRK_Y104] | 0.761 | 0.948 | 1 | 0.535 | 0.536 | 0.623 | 0.634 | 0.501 | 0.685 | 0.434 | 0.519 | 0.721 | 0.921 | 0.523 | 0.72 | 0.954
3 | GGFSRYDEGSG [RECQL5_Y484_D480G] | 0.459 | 0.62 | 0.858 | 0.435 | 0.416 | 0.558 | 0.473 | 0.468 | 0.636 | 0.483 | 0.431 | 0.729 | 0.733 | 0.432 | 0.659 | 0.928
4 | NLVSEYQQYQD [TUBB3_Y422_D417N] | 0.673 | 0.698 | 0.831 | 0.44 | 0.541 | 0.693 | 0.531 | 0.606 | 0.679 | 0.508 | 0.582 | 0.968 | 1.37 | 0.592 | 0.726 | 1.05
5 | RYVTRHIYNRE [HLA-DQB1_Y62_Y62H] | 0.414 | 0.64 | 0.718 | 0.857 | 0.874 | 0.795 | 0.291 | 0.662 | 0.751 | 0.469 | 0.525 | 0.589 | 0.966 | 0.73 | 0.525 | 0.777
6 | RRDRDYTNLPS [CSF1R_Y923_E920D] | 1.45 | 0.677 | 1.87 | 0.442 | 0.545 | 0.682 | 0.815 | 0.673 | 1.65 | 0.64 | 0.604 | 0.639 | 1.15 | 0.551 | 0.696 | 0.893
7 | EQSGSYIWVLA [DLG1_Y895_P899L] | 0.383 | 0.394 | 0.65 | 0.504 | 0.476 | 0.641 | 1.11 | 0.517 | 0.705 | 0.526 | 0.634 | 1.14 | 1.27 | 0.482 | 0.917 | 1.32
8 | VDSNPYSRLMA [UBA5_Y53] | 1.57 | 3.31 | 0.699 | 0.524 | 1.16 | 0.488 | 0.468 | 1.72 | 0.469 | 1.04 | 0.465 | 0.47 | 0.608 | 0.756 | 0.533 | 0.657
9 | QDLRLYRPHLA [BTK_Y617_G613D] | 0.581 | 0.555 | 0.728 | 0.363 | 0.474 | 0.467 | 0.358 | 0.548 | 0.571 | 0.5 | 0.517 | 1.17 | 0.578 | 0.505 | 0.488 | 0.931
10 | NTGDDYDLFGG [PTPN11_Y63_Y62D_YF] | 0.376 | 0.439 | 0.666 | 0.412 | 1.02 | 0.608 | 0.546 | 0.618 | 0.826 | 0.623 | 0.586 | 1.05 | 1.42 | 0.722 | 0.652 | 1.21
11 | PTFEHYANSTQ [SLC12A3_Y70_YF] | 1.09 | 0.576 | 1.43 | 0.771 | 0.433 | 0.993 | 0.818 | 0.598 | 0.742 | 1.14 | 0.768 | 0.742 | 1.34 | 0.852 | 0.988 | 1.07
12 | KVKSIYFHTQG [AR_Y916_P914S] | 0.568 | 0.793 | 0.641 | 0.379 | 0.436 | 0.449 | 0.414 | 0.414 | 0.563 | 0.367 | 0.542 | 0.614 | 0.69 | 0.51 | 0.544 | 0.718
13 | GEHSIYCTVNN [CD55_Y266] | 0.48 | 0.639 | 0.598 | 2.08 | 4.66 | 5.39 | 0.955 | 5.61 | 1.98 | 5.03 | 6.56 | 1.22 | 1.55 | 5.28 | 1.07 | 1.73
14 | REGAKYVSHGA [ASS1_Y113] | 0.415 | 0.322 | 0.602 | 0.403 | 0.275 | 0.4 | 0.385 | 0.399 | 0.339 | 0.566 | 0.553 | 0.47 | 0.5 | 0.378 | 0.501 | 0.628
15 | FTNRSYDLDFD [MYC_Y12_N11S_YF] | 2.61 | 0.723 | 0.756 | 0.422 | 0.499 | 0.58 | 0.685 | 0.64 | 0.77 | 0.476 | 0.505 | 0.922 | 0.978 | 0.55 | 0.708 | 1.13
16 | AIQDAYMHITS [ADCY10_Y318] | 1.27 | 0.742 | 0.825 | 0.542 | 0.483 | 0.492 | 0.576 | 0.457 | 0.588 | 0.497 | 0.469 | 0.584 | 0.671 | 0.517 | 0.523 | 0.647
17 | EKESCYILHSS [PATJ_Y783_E779K] | 0.719 | 0.694 | 0.959 | 0.533 | 0.595 | 0.519 | 0.572 | 0.497 | 0.707 | 0.623 | 0.531 | 0.936 | 1.28 | 0.549 | 0.77 | 1.09

Continued, in another order:

Row | SH2 binding enrichment (c-Src SH2) | SH2 binding enrichment (SHP2-C SH2) | SH2 binding enrichment (Grb2 SH2) | Sequence | phosphorylation enrichment (MERTK) | phosphorylation enrichment (c-Src) | phosphorylation enrichment (EPHB2) | phosphorylation enrichment (FGFR1) | phosphorylation enrichment (Hck) | phosphorylation enrichment (c-Abl (mouse)) | phosphorylation enrichment (Fer (mouse)) | phosphorylation enrichment (EPHB1) | phosphorylation enrichment (Jak2) | phosphorylation enrichment (AncSZ) | phosphorylation enrichment (Fyn) | phosphorylation enrichment (FGFR3) | phosphorylation enrichment (Fes)
18 | 0.537 | 1.05 | 1.08 | LTPVKYLLSAT [GSDMC_Y26] | 0.425 | 0.345 | 0.412 | 0.46 | 0.429 | 0.593 | 0.282 | 0.585 | 0.433 | 0.515 | 0.396 | 0.508 | 0.616
19 | 1.34 | 0.704 | 0.902 | YCRHNYGAVES [HLA-DRB1_Y112_V114A] | 0.549 | 0.503 | 0.623 | 0.519 | 0.549 | 0.696 | 0.514 | 0.566 | 0.739 | 0.658 | 0.416 | 0.659 | 0.678
20 | 6.21 | 3.63 | 0.927 | VIEYSYTSADG [DHCR7_Y382_C380Y] | 0.365 | 0.536 | 0.633 | 0.711 | 0.557 | 0.686 | 0.538 | 0.699 | 0.897 | 1.34 | 0.497 | 0.82 | 1.19
21 | 0.993 | 1.23 | 1.43 | IGMLIYFARKA [VCAM1_Y718_I716L] | 0.496 | 0.424 | 0.481 | 0.461 | 0.536 | 0.508 | 0.425 | 0.518 | 0.703 | 0.934 | 0.453 | 0.456 | 0.846
22 | 0.49 | 0.507 | 0.877 | YGSSSYRGAGG [RPA2_Y14_G15R] | 0.369 | 0.412 | 0.334 | 0.343 | 0.443 | 0.623 | 0.465 | 0.393 | 0.528 | 0.491 | 0.386 | 0.409 | 0.483
23 | 0.423 | 0.637 | 0.69 | AAALAYGLDKS [HSPA9_Y230] | 0.398 | 0.528 | 0.4 | 0.455 | 0.419 | 0.499 | 0.467 | 0.442 | 1.2 | 0.598 | 0.388 | 0.477 | 1.12
24 | 0.644 | 0.717 | 1.03 | ESKKHYGFSLF [ANXA3_Y295_F291S_YF] | 0.526 | 0.453 | 0.541 | 0.572 | 0.528 | 0.676 | 0.526 | 0.574 | 0.93 | 1.01 | 0.513 | 0.678 | 1.03
25 | 1.57 | 1.12 | 1.3 | SKHRLYSDLQT [PTCHD1_Y84] | 0.645 | 0.371 | 0.484 | 0.339 | 0.422 | 0.476 | 0.654 | 0.443 | 0.406 | 0.5 | 0.376 | 0.411 | 0.715
26 | 0.534 | 0.608 | 0.685 | FGCTFYNQAIM [MCCC2_Y196_R193C] | 0.365 | 0.47 | 0.777 | 0.529 | 0.597 | 0.968 | 0.647 | 0.825 | 1.32 | 1.4 | 0.472 | 1.04 | 1.54
27 | 0.505 | 0.514 | 0.806 | AAGGRYDGLVG [HARS1_Y363] | 0.378 | 0.348 | 0.351 | 0.291 | 0.351 | 0.538 | 0.306 | 0.357 | 0.489 | 0.677 | 0.346 | 0.48 | 0.615
28 | 0.439 | 1.05 | 0.913 | PEYVVYKPQME [CCRL2_Y170_F167Y] | 1.14 | 9.4 | 7.28 | 8.3 | 6.69 | 9.5 | 1.09 | 2.97 | 5.75 | 6.34 | 9.13 | 6.08 | 1.29
29 | 0.431 | 0.466 | 0.751 | AGNPAYRSFSN [IL4R_Y497] | 0.39 | 0.45 | 0.318 | 0.366 | 0.424 | 0.618 | 0.389 | 0.347 | 0.447 | 0.52 | 0.402 | 0.414 | 0.575
30 | 0.44 | 0.708 | 0.727 | LPQDGYRIVQH [PTPRT_Y1329_R1324L] | 0.361 | 0.346 | 0.423 | 0.403 | 0.418 | 0.716 | 0.408 | 0.402 | 0.575 | 0.672 | 0.43 | 0.55 | 0.809
31 | 0.595 | 0.638 | 0.785 | YTHSDYQYSQR [PKP2_Y166] | 0.474 | 0.434 | 0.482 | 0.467 | 0.391 | 0.444 | 0.42 | 0.479 | 0.757 | 0.892 | 0.403 | 0.507 | 0.594
32 | 0.428 | 0.632 | 0.722 | HNLNFYKKTTN [FGFR3_Y648_D646N_YF] | 0.605 | 0.565 | 0.553 | 0.735 | 0.572 | 0.642 | 0.806 | 0.761 | 0.832 | 1.42 | 0.975 | 2.99 | 0.92
33 | 0.429 | 0.574 | 1.03 | PLQDVYKIGGI [EEF1A2_Y254] | 0.522 | 4.34 | 0.572 | 0.505 | 1.04 | 1.92 | 0.679 | 2.02 | 1 | 1.01 | 2.3 | 0.793 | 0.981
